According to patent US20260055200A1, “COMBINATION THERAPIES” (Alligator Bioscience AB, priority 2022, published 2026):

System: MB49-FFX-ACQ bladder carcinoma cells
Test: Chemotherapy-resistant MB49-FFX-ACQ tumour model in hCD40tg mice
Assay type: in vivo, mouse
Details: FIG. 7B/7C
Description: Note: All mice were dosed with flat doses and mg/kg doses reported herein are based on an average mouse weight of 20 g (0.02 kg).
As FOLFIRINOX is composed of four individual components, it was dosed over the course of two days, for a total of three cycles. Mice first received oxaliplatin followed by irinotecan, followed the day after by folinic acid and 2 hours after that, mice were dosed with 5-fluorouracil.
Three days following the initiation of the dosing of FOLFIRINOX, mitazalimab was administered in 5% glucose (dextrose buffer) at 5 mg/kg.
The dosing regimen applied in the two efficacy studies detailing number of doses and their relation to one another is outlined in FIG. 5. […]
On day 0, ten- to twelve-week-old female hCD40tg mice were injected subcutaneously on the right hind flank with 0.4×10^6 MB49-FOLFIRINOX-ACQ in a volume of 100 μl PBS. […] Controls or antibodies were administered as outlined in Table 24, and mice were monitored shortly following each treatment to detect potential signs of toxicity. Tumor volume was measured three times weekly with a calliper and calculated as: ((width/2×length/2×height/2)×[…]). […]
Collected data was analyzed using Kaplan Meier and Log-rank (Mantel-Cox) for survival and Mann-Whitney, non-parametric, 2-tail for FACS data and tumor growth using GraphPad Prism program (*, p<0.05; **, p<0.01). […]

B1: Mitazalimab: agonistic, human monoclonal (IgG1) antibody targeting CD40 (antibody, chains of the INN, looked up, V domains shown)
VH: EVQLLESGGGLVQPGGSLRLSCAASGFTFSTYGMHWVRQAPGKGLEWLSYISGGSSYIFYADSVRGRFTISRDNSENALYLQMNSLRAEDTAVYYCARILRGGSGMDLWGQGTLVTVSS
VL: QSVLTQPPSASGTPGQRVTISCTGSSSNIGAGYNVYWYQQLPGTAPKLLIYGNINRPSGVPDRFSGSKSGTSASLAISGLRSEDEADYYCAAWDKSISGLVFGGGTKLTVL
With B1 the “effect on tumour growth in chemo-resistant tumours” value was “synergises with FOLFIRINOX”.
